T1: Rab5a GTPase, recombinant, GTP-loaded (UniProt P20339 1-215)
T1 sequence: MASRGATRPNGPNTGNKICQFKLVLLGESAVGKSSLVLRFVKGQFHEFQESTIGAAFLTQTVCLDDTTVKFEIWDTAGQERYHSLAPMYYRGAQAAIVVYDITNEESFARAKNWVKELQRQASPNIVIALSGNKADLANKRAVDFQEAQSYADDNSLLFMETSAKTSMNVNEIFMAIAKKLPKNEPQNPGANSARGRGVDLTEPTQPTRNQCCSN


Tests used:
[1] = molecular target: Rab7 GTPase, recombinant, GTP-loaded (UniProt P51149 1-207); assay: cell-based or functional assay
[2] = molecular target: T1, Rab5a GTPase, recombinant, GTP-loaded; assay: cell-based or functional assay

Chain of Rab7 GTPase, recombinant, GTP-loaded (P51149 whole entry): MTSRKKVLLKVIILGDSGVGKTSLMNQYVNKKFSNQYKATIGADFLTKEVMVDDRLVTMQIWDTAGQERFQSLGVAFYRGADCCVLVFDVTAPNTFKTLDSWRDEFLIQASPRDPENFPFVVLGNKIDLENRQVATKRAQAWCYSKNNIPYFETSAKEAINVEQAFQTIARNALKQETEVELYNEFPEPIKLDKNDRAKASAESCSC

Binder	GAP activity: depletion of the gamma phosphate of [γ-32P]GTP bound to Rab7 spotted on nitrocellulose, after 2 h with 10 µg/ml Ndk, relative to untreated [1] [%]	GAP activity: depletion of the gamma phosphate of [γ-32P]GTP bound to Rab5 spotted on nitrocellulose, after 2 h with 10 µg/ml Ndk, relative to untreated [2] [%]	GAP activity: reduction of [γ-32P]GTP bound to Rab5 spotted on nitrocellulose, after 2 h with 10 µg/ml Ndk, relative to untreated [2] [%]
Mycobacterium tuberculosis nucleoside diphosphate kinase (Ndk), recombinant (enzyme) MTERTLVLIKPDGIERQLIGEIISRIERKGLTIAALQLRTVSAELASQHYAEHEGKPFFGSLLEFITSGPVVAAIVEGTRAIAAVRQLAGGTDPVQAAAPGTIRGDFALETQFNLVHGSDSAESAQREIALWFPGA	90	95	
Mycobacterium smegmatis nucleoside diphosphate kinase (Ndk), recombinant (enzyme) MTERTLVLIKPDGVKRQLVGEILSRIERKGLTLAALELKNVSDDLARQHYAEHADKPFFGSLLEFITSGPLVAAIVEGPRAVAAFRQIAGGTDPVEKAVPGTIRGDFALITQDNLVHGSDSPESAAREIALWFPGEATA			35

From PMC2808246, “Mycobacterial Nucleoside Diphosphate Kinase Blocks Phagosome Maturation in Murine Raw 264.7 Macrophages” (PLoS ONE, 2010)
